# Experimental data: patent US20100285131A1 (Amgen, published 2010)
# Biological target: T1, β-Klotho overexpressed in recombinant human 293T kidney cells
# Assay: cell-based or functional assay
row,"Efficacy (ELK-luciferase, relative to wild-type FGF21) [%]",Binder
1,93.2,FGF21 truncation mutant 1-180 (ligand) HPIPDSSPLLQFGGQVRQRYLYTDDAQQTEAHLEIREDGTVGGAADQSPESLLQLKALKPGVIQILGVKTSRFLCQRPDGALYGSLHFDPEACSFRELLLEDGYNVYQSEAHGLPLHLPGNKSPHRDPAPRGPARFLPLPGLPPAPPEPPGILAPQPPDVGSSDPLSMVGPSQGRSPSYA
2,112,FGF21 truncation mutant 1-177 (ligand) HPIPDSSPLLQFGGQVRQRYLYTDDAQQTEAHLEIREDGTVGGAADQSPESLLQLKALKPGVIQILGVKTSRFLCQRPDGALYGSLHFDPEACSFRELLLEDGYNVYQSEAHGLPLHLPGNKSPHRDPAPRGPARFLPLPGLPPAPPEPPGILAPQPPDVGSSDPLSMVGPSQGRSP
3,130,FGF21 truncation mutant 3-181 (ligand) IPDSSPLLQFGGQVRQRYLYTDDAQQTEAHLEIREDGTVGGAADQSPESLLQLKALKPGVIQILGVKTSRFLCQRPDGALYGSLHFDPEACSFRELLLEDGYNVYQSEAHGLPLHLPGNKSPHRDPAPRGPARFLPLPGLPPAPPEPPGILAPQPPDVGSSDPLSMVGPSQGRSPSYAS
4,105,FGF21 truncation mutant 1-176 (ligand) HPIPDSSPLLQFGGQVRQRYLYTDDAQQTEAHLEIREDGTVGGAADQSPESLLQLKALKPGVIQILGVKTSRFLCQRPDGALYGSLHFDPEACSFRELLLEDGYNVYQSEAHGLPLHLPGNKSPHRDPAPRGPARFLPLPGLPPAPPEPPGILAPQPPDVGSSDPLSMVGPSQGRS
5,10,FGF21 truncation mutant 1-165 (ligand) HPIPDSSPLLQFGGQVRQRYLYTDDAQQTEAHLEIREDGTVGGAADQSPESLLQLKALKPGVIQILGVKTSRFLCQRPDGALYGSLHFDPEACSFRELLLEDGYNVYQSEAHGLPLHLPGNKSPHRDPAPRGPARFLPLPGLPPAPPEPPGILAPQPPDVGSSDP
6,24.9,FGF21 truncation mutant 8-181 (ligand) PLLQFGGQVRQRYLYTDDAQQTEAHLEIREDGTVGGAADQSPESLLQLKALKPGVIQILGVKTSRFLCQRPDGALYGSLHFDPEACSFRELLLEDGYNVYQSEAHGLPLHLPGNKSPHRDPAPRGPARFLPLPGLPPAPPEPPGILAPQPPDVGSSDPLSMVGPSQGRSPSYAS
7,20,FGF21 truncation mutant 1-166 (ligand) HPIPDSSPLLQFGGQVRQRYLYTDDAQQTEAHLEIREDGTVGGAADQSPESLLQLKALKPGVIQILGVKTSRFLCQRPDGALYGSLHFDPEACSFRELLLEDGYNVYQSEAHGLPLHLPGNKSPHRDPAPRGPARFLPLPGLPPAPPEPPGILAPQPPDVGSSDPL
8,20,FGF21 truncation mutant 1-167 (ligand) HPIPDSSPLLQFGGQVRQRYLYTDDAQQTEAHLEIREDGTVGGAADQSPESLLQLKALKPGVIQILGVKTSRFLCQRPDGALYGSLHFDPEACSFRELLLEDGYNVYQSEAHGLPLHLPGNKSPHRDPAPRGPARFLPLPGLPPAPPEPPGILAPQPPDVGSSDPLS
9,120,FGF21 truncation mutant 5-181 (ligand) DSSPLLQFGGQVRQRYLYTDDAQQTEAHLEIREDGTVGGAADQSPESLLQLKALKPGVIQILGVKTSRFLCQRPDGALYGSLHFDPEACSFRELLLEDGYNVYQSEAHGLPLHLPGNKSPHRDPAPRGPARFLPLPGLPPAPPEPPGILAPQPPDVGSSDPLSMVGPSQGRSPSYAS
10,74.2,FGF21 truncation mutant 7-181 (ligand) SPLLQFGGQVRQRYLYTDDAQQTEAHLEIREDGTVGGAADQSPESLLQLKALKPGVIQILGVKTSRFLCQRPDGALYGSLHFDPEACSFRELLLEDGYNVYQSEAHGLPLHLPGNKSPHRDPAPRGPARFLPLPGLPPAPPEPPGILAPQPPDVGSSDPLSMVGPSQGRSPSYAS
11,12.5,FGF21 truncation mutant 9-181 (ligand) LLQFGGQVRQRYLYTDDAQQTEAHLEIREDGTVGGAADQSPESLLQLKALKPGVIQILGVKTSRFLCQRPDGALYGSLHFDPEACSFRELLLEDGYNVYQSEAHGLPLHLPGNKSPHRDPAPRGPARFLPLPGLPPAPPEPPGILAPQPPDVGSSDPLSMVGPSQGRSPSYAS
12,96.1,FGF21 truncation mutant 1-173 (ligand) HPIPDSSPLLQFGGQVRQRYLYTDDAQQTEAHLEIREDGTVGGAADQSPESLLQLKALKPGVIQILGVKTSRFLCQRPDGALYGSLHFDPEACSFRELLLEDGYNVYQSEAHGLPLHLPGNKSPHRDPAPRGPARFLPLPGLPPAPPEPPGILAPQPPDVGSSDPLSMVGPSQ
13,117,FGF21 truncation mutant 4-181 (ligand) PDSSPLLQFGGQVRQRYLYTDDAQQTEAHLEIREDGTVGGAADQSPESLLQLKALKPGVIQILGVKTSRFLCQRPDGALYGSLHFDPEACSFRELLLEDGYNVYQSEAHGLPLHLPGNKSPHRDPAPRGPARFLPLPGLPPAPPEPPGILAPQPPDVGSSDPLSMVGPSQGRSPSYAS
14,97.5,FGF21 truncation mutant 1-172 (ligand) HPIPDSSPLLQFGGQVRQRYLYTDDAQQTEAHLEIREDGTVGGAADQSPESLLQLKALKPGVIQILGVKTSRFLCQRPDGALYGSLHFDPEACSFRELLLEDGYNVYQSEAHGLPLHLPGNKSPHRDPAPRGPARFLPLPGLPPAPPEPPGILAPQPPDVGSSDPLSMVGPS
15,112,FGF21 truncation mutant 2-181 (ligand) PIPDSSPLLQFGGQVRQRYLYTDDAQQTEAHLEIREDGTVGGAADQSPESLLQLKALKPGVIQILGVKTSRFLCQRPDGALYGSLHFDPEACSFRELLLEDGYNVYQSEAHGLPLHLPGNKSPHRDPAPRGPARFLPLPGLPPAPPEPPGILAPQPPDVGSSDPLSMVGPSQGRSPSYAS
16,84.9,FGF21 truncation mutant 1-169 (ligand) HPIPDSSPLLQFGGQVRQRYLYTDDAQQTEAHLEIREDGTVGGAADQSPESLLQLKALKPGVIQILGVKTSRFLCQRPDGALYGSLHFDPEACSFRELLLEDGYNVYQSEAHGLPLHLPGNKSPHRDPAPRGPARFLPLPGLPPAPPEPPGILAPQPPDVGSSDPLSMV
17,95,FGF21 truncation mutant 1-178 (ligand) HPIPDSSPLLQFGGQVRQRYLYTDDAQQTEAHLEIREDGTVGGAADQSPESLLQLKALKPGVIQILGVKTSRFLCQRPDGALYGSLHFDPEACSFRELLLEDGYNVYQSEAHGLPLHLPGNKSPHRDPAPRGPARFLPLPGLPPAPPEPPGILAPQPPDVGSSDPLSMVGPSQGRSPS
18,113,FGF21 truncation mutant 1-171 (ligand) HPIPDSSPLLQFGGQVRQRYLYTDDAQQTEAHLEIREDGTVGGAADQSPESLLQLKALKPGVIQILGVKTSRFLCQRPDGALYGSLHFDPEACSFRELLLEDGYNVYQSEAHGLPLHLPGNKSPHRDPAPRGPARFLPLPGLPPAPPEPPGILAPQPPDVGSSDPLSMVGP
19,105,FGF21 truncation mutant 1-174 (ligand) HPIPDSSPLLQFGGQVRQRYLYTDDAQQTEAHLEIREDGTVGGAADQSPESLLQLKALKPGVIQILGVKTSRFLCQRPDGALYGSLHFDPEACSFRELLLEDGYNVYQSEAHGLPLHLPGNKSPHRDPAPRGPARFLPLPGLPPAPPEPPGILAPQPPDVGSSDPLSMVGPSQG

# Biological target: T1, β-Klotho overexpressed in recombinant …
# Assay: cell-based or functional assay
# Remark: another data set of the same source
"EC50 (nM), ELK-luciferase [nM]","Efficacy, ELK-luciferase [%]",Binder
0.4,100,human FGF21 (ligand) HPIPDSSPLLQFGGQVRQRYLYTDDAQQTEAHLEIREDGTVGGAADQSPESLLQLKALKPGVIQILGVKTSRFLCQRPDGALYGSLHFDPEACSFRELLLEDGYNVYQSEAHGLPLHLPGNKSPHRDPAPRGPARFLPLPGLPPAPPEPPGILAPQPPDVGSSDPLSMVGPSQGRSPSYAS
